Target: T1, GST-tagged HK2 (human, UniProt P52789 1-917)
T1 construct: Hexokinase 2 (HK2), human cDNA cloned into pGEX-4T-1; also called GST-HK2; source: E. coli BL21 (DE3), purified
T1 sequence (looked up): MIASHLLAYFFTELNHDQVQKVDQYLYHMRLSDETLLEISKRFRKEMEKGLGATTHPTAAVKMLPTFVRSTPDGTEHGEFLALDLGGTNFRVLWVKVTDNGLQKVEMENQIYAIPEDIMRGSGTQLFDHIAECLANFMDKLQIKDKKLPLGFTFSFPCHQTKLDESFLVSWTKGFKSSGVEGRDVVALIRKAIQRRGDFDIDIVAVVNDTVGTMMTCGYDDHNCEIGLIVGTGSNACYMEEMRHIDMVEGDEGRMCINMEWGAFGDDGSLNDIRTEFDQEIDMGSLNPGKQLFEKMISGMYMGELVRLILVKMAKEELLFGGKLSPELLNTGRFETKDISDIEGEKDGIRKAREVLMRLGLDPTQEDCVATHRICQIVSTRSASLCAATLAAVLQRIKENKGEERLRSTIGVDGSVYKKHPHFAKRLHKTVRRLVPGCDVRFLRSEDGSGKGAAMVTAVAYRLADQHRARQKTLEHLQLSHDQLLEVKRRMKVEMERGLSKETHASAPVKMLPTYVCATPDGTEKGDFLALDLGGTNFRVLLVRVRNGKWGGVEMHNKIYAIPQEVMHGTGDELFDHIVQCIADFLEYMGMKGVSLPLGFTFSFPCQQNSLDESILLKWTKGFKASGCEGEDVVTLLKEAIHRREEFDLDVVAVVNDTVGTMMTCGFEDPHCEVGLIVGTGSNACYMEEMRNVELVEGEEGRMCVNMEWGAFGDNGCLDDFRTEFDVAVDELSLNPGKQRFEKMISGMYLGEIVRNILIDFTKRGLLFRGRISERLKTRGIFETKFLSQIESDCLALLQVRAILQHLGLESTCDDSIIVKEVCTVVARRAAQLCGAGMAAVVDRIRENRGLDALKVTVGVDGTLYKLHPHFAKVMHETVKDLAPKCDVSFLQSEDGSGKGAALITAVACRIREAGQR
Assay: pull-down; purified GST-tagged HK2 or GST mixed with His-PIM2; GST-binding resin, more than 8 h, five washes with lysis buffer
Conditions: both partners purified

binding result: binds
B1: His-tagged PIM2 (enzyme)
chain: not shown
notes: Serine/threonine kinase PIM2, human cDNA cloned into pet28a; also called His-PIM2; source: E. coli BL21 (DE3), purified
